The assay deals with T1, 丝氨酸蛋白酶抑制因子SPINK1的第10-19个氨基酸片段 (synthetic SPINK1 peptide, aa 10-19).
T1 sequence (peptide): SALALLSLSG
The assay can be described thus: antibody titer; method and coated antigen not stated there, taken to be ELISA on the coated immunogen peptide. (In general: In an ELISA, binding on a coated surface is turned into a signal by an enzyme label.)

B1: 单克隆抗体KZN2 (monoclonal antibody against SPINK1 produced by hybridoma CGMCC No.15800) (antibody, V domains shown)
VH: QVQLQQSGGGLVQPGGAMKLSCTASGFTFSDAWMYWVRQSPEKGLEWVAEIRNKAYNHATYYAESVKGRFTISGDDSKSSVYLQMNSLRAEDTGIYYCTTYDYWGQGTTVTVSS
VL: DIVMTQSPLSLPVSLGDQASISCRSSQSLVHGDGNTYLHWYLQKPGQSPNLLIYKISNRFSGVPDRFSGSGSGTDFTLKISRVEAEDLGVYFCSQNTHVPRTFGGGTKLEIK
On to B1, for which the 抗体最低作用浓度 was 0.0825 µg/mL and the 效价 (dilution factor (1:x)) turned out to be 4000.

Source of the values: CN109776679A.
